# Experimental data from patent US20250289893A1 (OXFORD UNIVERSITY INNOVATION, published 2025).
# T1: Cynomolgus monkey CD1a protein (Cynomolgus monkey)
# T1 chain: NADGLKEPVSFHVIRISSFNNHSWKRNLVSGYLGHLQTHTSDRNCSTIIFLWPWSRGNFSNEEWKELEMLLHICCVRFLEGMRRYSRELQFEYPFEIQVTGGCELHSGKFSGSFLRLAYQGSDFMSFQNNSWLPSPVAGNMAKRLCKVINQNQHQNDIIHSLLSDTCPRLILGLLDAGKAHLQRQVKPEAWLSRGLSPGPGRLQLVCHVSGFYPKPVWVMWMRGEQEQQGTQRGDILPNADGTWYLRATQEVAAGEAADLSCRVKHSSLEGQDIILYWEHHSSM
# B1: 16 (VR11834) (antibody, V domains shown)
# VH: EVQLVESGGGLVKPGGSLKLSCAASGFTFSNYAMSWVRQTPEKRLEWVAAINSNGGSAYYPDTVKDRFTISRDNAKNTLYLQMSSLRSEDTALYYCARRFYYDYGWFAYWGQGTLVTVSS
# VL: DIVLTQSPASLSASVGETVTITCRASENIDSYLAWYQQKQGKSPQLLVYAATLLADGVPSRFSGSGSGTQYSLKINSLQSEDVARYYCQHYYSSPWTFGGGTKLEIK
# notes: also called OX16; antibody 16
# Legend:
# [1] = target: Chinese variant CD1a protein (human) (UniProt P06126); experiment: ELISA, 1 µg/ml antibody
# Sequence of Chinese variant CD1a protein (human) (P06126 18-295, change not shown): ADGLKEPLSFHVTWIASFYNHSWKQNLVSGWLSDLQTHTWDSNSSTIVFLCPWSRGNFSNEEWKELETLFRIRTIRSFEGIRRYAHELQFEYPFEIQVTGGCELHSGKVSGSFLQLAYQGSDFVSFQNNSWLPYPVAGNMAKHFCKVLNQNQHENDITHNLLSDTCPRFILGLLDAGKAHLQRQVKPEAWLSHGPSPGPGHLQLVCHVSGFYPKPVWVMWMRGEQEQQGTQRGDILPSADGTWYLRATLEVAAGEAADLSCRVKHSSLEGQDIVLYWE
# [2] = target: Chinese variant CD1a protein (human) (UniProt P06126); experiment: ELISA, 10 µg/ml antibody
# [3] = target: Chinese variant CD1a protein (human) (UniProt P06126); experiment: ELISA, 0.1 µg/ml antibody
# [4] = target: Chinese variant CD1a protein (human) (UniProt P06126); experiment: ELISA, 0.01 µg/ml antibody
# [5] = target: T1, Cynomolgus monkey CD1a protein; experiment: ELISA, 1 µg/ml antibody
# [6] = target: T1, Cynomolgus monkey CD1a protein; experiment: ELISA, 10 µg/ml antibody
# [7] = target: T2, human CD1b expressed on HEK-293 cells (human, UniProt P29016 18-333; P61769 21-119); experiment: flow cytometry, HEK-293 cells
# T2 construct: also called HEK - CD1b
# Procedure: (§1) CD1a-specific antibodies were identified by flow cytometry. Binding to proteins expressed on HEK, C1R and MOLT4 cell lines was assessed. […] The C1R-CD1a, C1R-empty vector and MOLT4 cell lines were washed in 1×PBS on the day required. All cell lines were counted and resuspended in 1×PBS and then stained for 30 minutes at 37° C. using the DiI or DiO cellular stains (Invitrogen). Cells were washed with flow cytometry buffer (1% bovine serum albumin, 2 mM EDTA and 0.1% sodium azide in PBS) before mixing 2 DiI-stained and DiO-stained populations together. The cells (20 μl/well) were then added to dilutions of antibody sample (B cell culture supernatant, TAP supernatant, clone supernatant, purified antibody solution) (20 μl/well) and incubated for 1 hour at 4° C. in a flow cytometry assay plate, before being washed with flow cytometry buffer. 10 μl/well of Alexafluor647-conjugated goat anti-species IgG Fc-specific F(ab′)2 fragment (Jackson ImmunoResearch), diluted 1:2500 in flow cytometry buffer, was added and incubated at 4° C. for 30 minutes, followed by washing with wash buffer. The fluorescence intensity was then measured on an iQue screener PLUS.
# [8] = target: T3, human CD1c expressed on HEK-293 cells (human, UniProt P29017 18-333; P61769 21-119); experiment: flow cytometry, HEK-293 cells
# T3 construct: also called HEK - CD1c
# Procedure: as §1
# [9] = target: T4, human CD1d expressed on HEK-293 cells (human, UniProt P15813 20-335; P61769 21-119); experiment: flow cytometry, HEK-293 cells
# T4 construct: also called HEK - CD1d
# Procedure: as §1
# [10] = target: T5, human CD1a protein (pool B) (human, UniProt P06126 18-295, limits assumed); experiment: ELISA, 0.1 µg/ml antibody
# T5 construct: Recombinant protein of the ELISA (coated) and the Biacore T200 titration; whole entry named; also called human CD1a pool B; full length CD1a
# T5 sequence (P06126 18-295 limits assumed): as the sequence (P06126 18-295, change not shown) above
# Procedure: (§2) CD1a-specific antibodies were identified by ELISA. […] 20 μl/well of peroxidase-conjugated goat anti-species IgG Fc-specific F(ab′)2 fragment (Jackson ImmunoResearch), diluted 1:5000 in block buffer was added and incubated at room temperature for 1 hour, followed by washing with wash buffer.
# The antibodies were titrated through a dilution series and compared to a control rabbit IgG antibody.
# [11] = target: chimeric CD1a pool B protein [human CD1a lipid binding domain, mouse CD1d Ig domain] (human; mouse, UniProt P06126 18-201; P11609 205-297, limits assumed); experiment: ELISA, 0.1 µg/ml antibody
# Sequence of chimeric CD1a pool B protein [human CD1a lipid binding domain, mouse CD1d Ig domain] (P06126 other isoform, or with tags, fused parts or gaps mutant limits assumed): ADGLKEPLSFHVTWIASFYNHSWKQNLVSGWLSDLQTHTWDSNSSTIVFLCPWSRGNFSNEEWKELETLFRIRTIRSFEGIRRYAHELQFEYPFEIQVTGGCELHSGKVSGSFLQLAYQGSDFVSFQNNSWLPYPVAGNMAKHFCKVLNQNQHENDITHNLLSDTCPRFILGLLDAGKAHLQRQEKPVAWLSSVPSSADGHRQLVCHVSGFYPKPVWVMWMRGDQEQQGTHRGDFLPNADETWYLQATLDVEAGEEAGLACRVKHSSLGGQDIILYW
# Procedure: as §2
# The antibodies were titrated through a dilution series and compared to a control rabbit IgG antibody. […] Data shown for purified antibodies.
# [12] = target: T1, Cynomolgus monkey CD1a protein; experiment: ELISA, 0.1 µg/ml antibody
# [13] = target: T1, Cynomolgus monkey CD1a protein; experiment: ELISA, 0.01 µg/ml antibody
# [14] = target: T6, human CD1a expressed on cells (human, UniProt P06126 17-327; P61769 21-119); experiment: flow cytometry, C1R cells, 1 µg/ml antibody
# T6 construct: also called HEK - CD1a; C1R - CD1a
# Procedure: (§3) Binding to proteins expressed on HEK, C1R and MOLT4 cell lines was assessed. […] The C1R-CD1a, C1R-empty vector and MOLT4 cell lines were washed in 1×PBS on the day required. All cell lines were counted and resuspended in 1×PBS and then stained for 30 minutes at 37° C. using the DiI or DiO cellular stains (Invitrogen). Cells were washed with flow cytometry buffer (1% bovine serum albumin, 2 mM EDTA and 0.1% sodium azide in PBS) before mixing 2 DiI-stained and DiO-stained populations together. The cells (20 μl/well) were then added to dilutions of antibody sample (B cell culture supernatant, TAP supernatant, clone supernatant, purified antibody solution) (20 μl/well) and incubated for 1 hour at 4° C. in a flow cytometry assay plate, before being washed with flow cytometry buffer. 10 μl/well of Alexafluor647-conjugated goat anti-species IgG Fc-specific F(ab′)2 fragment (Jackson ImmunoResearch), diluted 1:2500 in flow cytometry buffer, was added and incubated at 4° C. for 30 minutes, followed by washing with wash buffer. The fluorescence intensity was then measured on an iQue screener PLUS.
# (§4) Binding was quantified as fold change in fluorescence intensity geomean over background assessed by flow cytometry.
# [15] = target: T6, human CD1a expressed on cells; experiment: flow cytometry, C1R cells, 10 µg/ml antibody
# Procedure: as §3, §4
# [16] = target: T6, human CD1a expressed on cells; experiment: flow cytometry, C1R cells, 0.1 µg/ml antibody
# Procedure: as §3, §4
# [17] = target: T6, human CD1a expressed on cells; experiment: flow cytometry, MOLT4 cells, 1 µg/ml antibody
# Procedure: as §1, §4
# [18] = target: T6, human CD1a expressed on cells; experiment: flow cytometry, MOLT4 cells, 10 µg/ml antibody
# Procedure: as §1, §4
# [19] = target: T6, human CD1a expressed on cells; experiment: flow cytometry, HEK-293 cells, 1 µg/ml antibody
# Procedure: as §3
# (§5) HEK-293 cells were transiently transfected with human CD1a, CD1b, CD1c or CD1d and co-transfected with human β2M.
# [20] = target: T6, human CD1a expressed on cells; experiment: flow cytometry, MOLT4 cells, 0.1 µg/ml antibody
# Procedure: as §1, §4
# [21] = target: T7, Cynomolgus monkey CD1a expressed on HEK-293 cells (Cynomolgus monkey, UniProt A0A2K5VQ68 17-326); experiment: flow cytometry, HEK-293 cells, 1 µg/ml antibody
# T7 sequence (A0A2K5VQ68 entry or part of it): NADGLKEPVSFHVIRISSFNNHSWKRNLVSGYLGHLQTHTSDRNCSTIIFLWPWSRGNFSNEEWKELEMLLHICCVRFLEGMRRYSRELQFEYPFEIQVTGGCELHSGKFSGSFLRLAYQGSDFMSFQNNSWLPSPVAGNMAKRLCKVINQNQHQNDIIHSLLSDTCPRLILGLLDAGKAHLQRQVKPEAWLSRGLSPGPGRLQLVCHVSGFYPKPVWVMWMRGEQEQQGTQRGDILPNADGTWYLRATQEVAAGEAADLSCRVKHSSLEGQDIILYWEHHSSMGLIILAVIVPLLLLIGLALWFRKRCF
# Procedure: as §3, §4
# [22] = target: T6, human CD1a expressed on cells; experiment: flow cytometry, HEK-293 cells, 10 µg/ml antibody
# Procedure: as §3, §5
# [23] = target: T7, Cynomolgus monkey CD1a expressed on …; experiment: flow cytometry, HEK-293 cells, 10 µg/ml antibody
# Procedure: as §3, §4
# [24] = target: T6, human CD1a expressed on cells; experiment: flow cytometry, HEK-293 cells, 0.1 µg/ml antibody
# Procedure: as §3, §5
# [25] = target: T7, Cynomolgus monkey CD1a expressed on …; experiment: flow cytometry, HEK-293 cells, 0.1 µg/ml antibody
# Procedure: as §3, §4
# [26] = target: T7, Cynomolgus monkey CD1a expressed on …; experiment: flow cytometry, HEK-293 cells, 0.01 µg/ml antibody
# Procedure: as §3, §4
# [27] = target: T5, human CD1a protein (pool B); experiment: SPR (Biacore T200), antibody captured, human CD1a titrated, heterogeneous ligand model (KD)
# Procedure: (§6) The affinity of the purified antibodies to human CD1a was assessed using a Biacore T200 instrument (GE Healthcare) by capturing the antibody to an immobilized anti-species IgG F(ab′)2 followed by titration of human CD1a. Affinipure Goat anti-species IgG-F(ab′)2 fragment specific (Jackson ImmunoResearch) was immobilized on a CM5 Sensor Chip (GE Healthcare) via amine coupling chemistry to a capture level of ˜5000 response units (RUs). HBS-EP+ buffer (10 mM HEPES pH 7.4, 0.15 M NaCl, 3 mM EDTA, 0.05% Surfactant P20, GE Healthcare) was used as the running buffer with a flow rate of 10 μL/min. A 10 μL injection of test antibody at 0.5 μg/mL was used for capture by the immobilized Goat Anti-species Fab.
# (§7) Affinity was required to be <100 nM to be considered for progression.
# [28] = target: T5, human CD1a protein (pool B); experiment: SPR (Biacore T200), antibody captured, human CD1a titrated, heterogeneous ligand model (ka)
# Procedure: as §6, §7
# [29] = target: T5, human CD1a protein (pool B); experiment: SPR (Biacore T200), antibody captured, human CD1a titrated, heterogeneous ligand model (kd)
# Procedure: as §6
# (§8) The surface was regenerated between cycles by injection of 2×10 μL of 40 mM HCl, interspersed by a 10 μL injection of 5 mM NaOH at flowrate of 10 μL/min. Background subtraction binding curves were analyzed using the Biacore T200 evaluation software following standard procedures. Kinetic parameters were determined from the fitting algorithm. This assay was performed at the clone supernatant and purified antibody stage.
# as §7
# [30] = target: T5, human CD1a protein (pool B); experiment: SPR (Biacore T200), antibody captured, human CD1a titrated, heterogeneous ligand model (KD2)
# Procedure: as §6, §8, §7
# [31] = target: T5, human CD1a protein (pool B); experiment: SPR (Biacore T200), antibody captured, human CD1a titrated, heterogeneous ligand model (ka 2)
# Procedure: as §6, §8, §7
# [32] = target: T5, human CD1a protein (pool B); experiment: SPR (Biacore T200), antibody captured, human CD1a titrated, heterogeneous ligand model (kd 2)
# Procedure: as §6, §8, §7
binder,measurement,setting,value
B1,Optical Density (OD),[1],1.35 OD
same,Optical Density (OD),[2],1.44 OD
same,Optical Density (OD),[3],1.3 OD
same,Optical Density (OD),[4],1.01 OD
same,Optical Density (OD),[5],0.58 OD
same,Optical Density (OD),[6],0.49 OD
same,binding result,[7],no binding
same,binding result,[8],no binding
same,binding result,[9],no binding
same,Optical Density (OD),[10],0.59 OD
same,Optical Density (OD),[11],0.7 OD
same,Optical Density (OD),[12],0.57 OD
same,Optical Density (OD),[13],0.46 OD
same,Fluorescence Intensity Geomean (normalized to background),[14],10.1 fold over background
same,Fluorescence Intensity Geomean (normalized to background),[15],7 fold over background
same,Fluorescence Intensity Geomean (normalized to background),[16],10.2 fold over background
same,Fluorescence Intensity Geomean (normalized to background),[17],15 fold over background
same,Fluorescence Intensity Geomean (normalized to background),[18],7.5 fold over background
same,Fluorescence Intensity Geomean (normalized to background),[19],19.6 fold over background
same,Fluorescence Intensity Geomean (normalized to background),[20],14.4 fold over background
same,Fluorescence Intensity Geomean (normalized to background),[21],7.6 fold over background
same,Fluorescence Intensity Geomean (normalized to background),[22],10.2 fold over background
same,Fluorescence Intensity Geomean (normalized to background),[23],8.8 fold over background
same,Fluorescence Intensity Geomean (normalized to background),[24],12.9 fold over background
same,Fluorescence Intensity Geomean (normalized to background),[25],8.5 fold over background
same,Fluorescence Intensity Geomean (normalized to background),[26],6.9 fold over background
same,Kd,[27],0.392 nM
same,kon,[28],1.86e+06 M⁻¹ s⁻¹
same,koff,[29],0.000729 s⁻¹
same,Kd,[30],12.8 nM
same,kon,[31],514000 M⁻¹ s⁻¹
same,koff,[32],0.00658 s⁻¹
